Assay results taken from the supplement of paper PMC11865577.

Key:
Assay in all cases: pull-down binding Z-score (relative to library population); higher = stronger binding
Settings in all cases: RNA library: Library-2
[1] = system: TO-3-N3 (biotin conjugate)
Summary of the method: (§1)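 Heat-folded RNA library (1 μg, Cy5 or Cy3 end label, phosphate/NaCl/KCl buffer) was captured for 60 min at 25 °C on streptavidin beads displaying 100 pmol of biotin-conjugated small molecule, then washed three times. The bound fraction, eluted in hot SDS, was hybridised to a DNA barcode microarray at 55.5 °C for 20 h. Z-scores for binding were taken against the library mean and standard deviation after beads-only subtraction and trimmed averaging of replicate barcoded probes.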

[2] = system: TO-N3 (biotin conjugate)
Summary of the method: as §1

[3] = system: TO-3-N3-2 (biotin conjugate)
Summary of the method: as §1

[4] = system: TO-N3-2 (biotin conjugate)
Summary of the method: as §1

Sequence	pull-down binding Z-score [1]	pull-down binding Z-score [2]	pull-down binding Z-score [3]	pull-down binding Z-score [4]
GAACCUUGCUCUUCUGGAACAUACGAGGGCAAUUC	0.401	0.239	-0.0628	-0.153
GAACUCUACUAAUGUCACUAUUGCAACCUACUGUACUGGUUCUAUACCUUGUAGUGUUUGUCUUAGUGGUUUAGAUUC [DMSMaPseq_invitro_SARS-CoV-2_Motif_135]	0.03	-0.105	-0.164	-0.471
GAAGAGGGAGCAAUUGUUGGCGAAAUUUCACCAUUGCCUUCUCUUC [IAV_invivo_NS1_NEP_8_Motif_10+IAV_invivo_NS1_NEP_8_Motif_10]	-0.045	0.0993	0.262	-0.213
GAAGGCUAUUUGAACUCUACUAAUGUCACUAUUGCAACCUACUGUACUGGUUCUAUACCUUGUAGUGUUUGUCUUAGUGGUUUAGAUUCUUU	-0.541	-0.505	-0.458	-0.467
GAAGGUCUUAAUGACAACCUUC [SHAPE_invitro_SARS-CoV-2_Motif_33]	-0.78	-1.28	-0.502	-1.39
GAAGUCACACCUUC [SHAPE_invitro_SARS-CoV-2_Motif_534]	0.0219	-0.137	-0.725	-0.517
GAAGUUACAACAACUCUGGAAGAAACUAAGUUCCUCACAGAAAACUUGUUACUUU [DMSMaPseq_invitro_SARS-CoV-2_Motif_72]	-0.508	-0.304	-0.321	0.97
GAAUGCGUCAUCAUCUGAAGCAUUU	-0.994	-1.1	-0.405	-0.61
GAAUGGAGAACGCAGUGGGGCGCGAUCAAAACAACGUCGGCCCCAAGGUUUACCCAAUAAUACUGCGUCUUGGUUC	0.148	0.452	0.382	0.849
GAAUUUACACCUUUUGAUGUUGUUAGACAAUGCUCAGGUGUUACUUUC	0.167	0.0292	-0.394	-0.632
GACAAUGUCUUAUCUACUUUUAUUUCAGCAGCUCGGCAAGGGUUUGUUGAUUCAGAUGUAGAAACUAAAGAUGUUGUU	-0.56	-0.599	-0.111	-0.776
GACAGCAGAUAUAGUUGUC	0.607	0.331	0.368	-0.0659
GACAGUGGUUGCCUACGGGUACGCUGCUUGUC	0.731	0.666	-0.021	0.01
GACAUCACUUUCUUAAAGAAAGAUGCUCCAUAUAUAGUGGGUGAUGUU [DMSMaPseq_invitro_SARS-CoV-2_Multi_15_ComplexLevel_1]	-0.0756	-0.173	-0.0858	-0.466
GACAUGUUCCUCGGAACUUGUC	-0.926	-1.35	-0.631	-0.965
GACAUUUUAUCUUACUAAUGAUGUUUCUUUUUUAGCACAUAUUCAGUGGAUGGUUAUGUU [DMSMaPseq_invitro_SARS-CoV-2_Motif_175]	0.0838	0.455	0.317	0.0287
GACCAGAAAUCAGCCCGAAUGGUU [IAV_invivo_PB1_2_Motif_17+IAV_invivo_PB1_2_Motif_17]	-0.477	-0.464	-0.175	-0.162

Sequence	pull-down binding Z-score [1]	pull-down binding Z-score [2]	pull-down binding Z-score [3]	pull-down binding Z-score [4]
GACCCUAAGACUAAAAAUGUUACAAAAGAAAAUGACUCUAAAGAGGGUUUUUUCACUUACAUUUGUGGGUU	-0.131	-0.227	0.101	-0.519
GACCCUGUGGGUU [SHAPE_invitro_SARS-CoV-2_Motif_242]	0.817	0.574	-0.329	-0.805
GACGACUACUAGCGUGCCUUUGUAAGCACAAGCUGAUGAGUACGAACUUAUGUACUCAUUCGUU [SHAPE_invivo_SARS-CoV-2_Multi_65_ComplexLevel_1]	0.114	0.417	0.0759	0.764
GACUACUAGCGUGCCUUUGUAAGCACAAGCUGAUGAGUACGAACUUAUGUACUCAUUCGUUUCGGAAGAGACAGGUACGUUAAUAGUU [SHAPE_invitro_SARS-CoV-2_Multi_71_ComplexLevel_1]	0.389	0.649	0.392	0.672
GACUCAUUCAAGGAGGAGUU [SHAPE_invivo_SARS-CoV-2_Motif_469]	0.25	0.111	-0.149	-0.297
GACUCUGAGCCAGUGCUCAAAGGAGUC	-0.523	-0.677	-0.434	-0.0814
GACUUAUGAAAACUAUAGGUC	-0.388	-0.299	0.00298	-0.341
GACUUCAGUAACUCAGGUUCUGAUGUU	-0.751	-0.829	-0.426	-0.704
GACUUGCUUUAGCACUCAAUUUGCUUUUGCUUGUC	0.241	-0.0156	-0.00573	-1.08
GAGACAUUUAAACUGUCUU	-0.469	-0.91	-0.286	-1.06
GAGACGGUCGGGUCCAGAUAUUCGUAUCUGUCGAGUAGAGUGUGGGCUCC [Broccoli]	0.184	1.12	0.495	1.99
GAGAGUGUUCAGACAUUCUU [SHAPE_invivo_SARS-CoV-2_Motif_44]	0.913	0.718	-0.0995	-0.51
GAGCUGCCCUGUCGGUGAAGCUC [IAV_invivo_NA_6_Motif_6+IAV_invivo_NA_6_Motif_6]	0.171	0.217	-0.0787	0.384
GAGGCACUUAAAAUGACCAUGGCCUC [IAV_invivo_NS1_NEP_8_Motif_6+IAV_invivo_NS1_NEP_8_Motif_6]	0.555	0.233	0.446	-0.305
GAGGCUAUGUACACACCGCAUACAGUCUUACAGGCUGUUGGGGCUUGUGUUCUUUGCAAUUC [SHAPE_invitro_SARS-CoV-2_Motif_296]	-0.256	0.112	-0.158	0.485
GAGGGGUGUAUACUGCUGCCGUGAACAUGAGCAUGAAAUUGCUUGGUACACGGAACGUUCUGAAAAGAGCUAUGAAUUGCAGACACCUUUU	-0.406	-0.034	-0.11	0.475
